From publication PMC3025356, “Mechanism of the Ca^2+-Dependent Interaction between S100A4 and Tail Fragments of Nonmuscle Myosin Heavy Chain IIA” (Journal of Molecular Biology, 2011)

Experiments:
S100A4 [1] = target: T1, S100A4 (Homo sapiens, UniProt P26447); test: Summary of rate and equilibrium constants defined according to Scheme 1; format: binding
T1 construct: We used full-length S100A4 for this analysis; made in house; host or cells: Escherichia coli BL21(DE3)
Source text: The interaction of myosin tail fragments (M) with S100A4 depends on [Ca^2+], with little detectable binding in the absence of Ca^2+.[2,7,17] Scheme 1 presents a minimal pathway describing the thermodynamics and kinetics of this interaction, where arrow lengths indicate the approximate position of the equilibria involved.
[formula] Scheme 1 Ca2+ and myosin peptide (M) binding to S100A4.
The binding of Ca^2+ and a target peptide to S100A4, as shown in Scheme 1, is thermodynamically coupled so that K1K2 = K0K3. For simplicity, we assume a 1:1 stoichiometry and independent binding sites, which are unlikely to be true at least for the longer fragments. However, the trends in binding remain valid for more complex cases. Binding of target peptides to S100A4 in the absence of Ca^2+ is weak (K0 > 100 μM), while binding of target peptides to S100A4 in the presence of Ca^2+ (K2) is around a micromolar or less for longer fragments. Knowing that Ca^2+ binding to S100A4 has K1 = 2–5 μM (from the ITC data above and the literature[14,17,18]) requires that Ca^2+ binding to the M–S100A4 complex be very tight (K3 < 0.15 μM and even lower for M200). The latter cannot be easily determined directly as it requires protein concentrations greater than K0 (i.e., >>100 μM) so that the proteins remain bound together throughout the titration with Ca^2+. However, K3 is readily determined by calculation because values or limits for K0, K1, and K2 are available (Table 2). This aspect is addressed further below for M200, which has the complication of forming filaments at the ionic strength used.

M200 filamentous bundles = test: Electron microscopy of myosin IIA tail fragments; set-up: species or system human
Protocol: Fig. 8 Characterisation of myosin IIA coiled-coil tail fragments. Metal-shadowed electron micrographs of (a) M200 and (b) M111 deposited from 0.5 M ammonium acetate. Scale bar represents 50 nm. (c and d) Electron micrographs of a negatively stained M200 tail fragment. Fields of M200 (c) in the absence and (d) in the presence of a 2-fold molar excess of S100A4, respectively. Arrows point to individual strands emerging from images of filamentous bundles. The samples were prepared in 0.1 M sodium acetate buffer, where M200 formed large filamentous aggregates but were solubilised in the presence of S100A4. Scale bar represents 200 nm (see Materials and Methods for details).
For negative staining, the stock solution of the M200 tail fragment was diluted with a solution consisting of 0.1 M Na-acetate, 3 mM MgCl2, 0.1 mM CaCl2, 10 mM imidazole, and 5 mM NaH2PO4 (pH 7.0), with or without 14 μM S100A4, to give a final concentration of 7 μM M200. Following dilution, 5 μl of the mixture was applied to a grid with a thin carbon film supported by a holey carbon film, and the grid was negatively stained using 1% uranyl acetate. For metal shadowing, the stock solutions of the M200 and M111 tail fragments were diluted with 0.5 M ammonium acetate solution to give a final concentration of 5 μM protein. This was mixed with an equal volume of glycerol, and the resulting mixture was sprayed onto freshly cleaved mica then rotary shadowed with platinum at an angle of 6°.[46] Grids were examined in a Philips CM120 electron microscope (FEI, Hillsboro, OR) operated at 80 kV. Images were recorded on a 2000 × 2000 F224HD slow-scan CCD camera (TVIPS, Gauting, Germany) at a magnification of 65,000× (0.37 nm pixel^− 1). The lengths of nonoverlapping well-shadowed molecules were measured as described by Burgess et al.[47]

S100A4 [2] = target: T1, S100A4; test: Quin-2 fluorescence, Ca^2+ dissociation from S100A4 in the presence of target peptides; format: binding
Protocol: Ca^2+ dissociation measurements for wild-type S100A4, using Quin-2 as described above, were repeated as a control for the effect of target peptides on this process. On mixing 10 μM S100A4 in the presence of Ca^2+ with 100 μM Quin-2, the observed profile was fitted to a single exponential with kobs = 17 s^− 1 (Fig. 5a; cf. k− 1 in Scheme 1).
Fig. 5 Dissociation of Ca^2+ from S100A4 in the absence and in the presence of target peptides monitored using Quin-2 fluorescence. (a) Mixed with 100 μM Quin-2 was 10 μM S100A4 + 50 μM Ca^2+ (stopped-flow reaction chamber concentrations). A superposed fit to a single exponential yields kobs = 17 s^− 1. […] (d) As in (a), but with 2.5 μM M200 premixed with 5 μM S100A4. A biphasic exponential fit yielded rate constants of 13 s^− 1 (A = 26%) and 0.30 s^− 1 (A = 74%). […] Experiments were carried out in either 20 mM NaCl, 20 mM Tris, 1 mM DTT, and 100 μM Ca^2+ at pH 7.5 and 20 °C (a and b; cf. Malashkevich et al.[17]), or 100 mM NaCl, 10 mM Hepes, and 100 μM Ca^2+ at pH 7.5 and 20 °C (c and d). […] Rate constants were unaffected by the inclusion of 1 mM Mg^2+.
Stopped-flow measurements were carried out using an SX18-MV apparatus (Applied Photophysics Ltd., Leatherhead, UK) with a dead time of 1.5 ms.[40] Records were generally captured on a logarithmic time base. Absorption (turbidity) measurements were usually recorded using a 10-mm pathlength, while fluorescence was recorded with a 2-mm pathlength for excitation and emission. The stated concentrations of components refer to the reaction chamber after mixing, unless otherwise indicated. Tyrosine fluorescence was excited at 280 nm, and the emission was collected through a UG11 bandpass filter plus a 305-nm longpass filter.[18] Fluorescein fluorescence was excited at 480 nm, and the emission was detected through a 515-nm longpass filter. Quin-2 fluorescence was measured by excitation at 336 nm, and emission was collected with a 455-nm longpass filter. For simultaneous recording of light scatter, a second channel was monitored through a UG11 filter. Rate constants were obtained by fitting to single-exponential or double-exponential functions using Kaleidagraph (Synergy Software) or Applied Photophysics Pro-Data software. Modeling of kinetic schemes was performed using Berkeley Madonna software.

[3] = 2.5 μM M200 premixed with 5 μM S100A4

T1 sequence (P26447 whole entry): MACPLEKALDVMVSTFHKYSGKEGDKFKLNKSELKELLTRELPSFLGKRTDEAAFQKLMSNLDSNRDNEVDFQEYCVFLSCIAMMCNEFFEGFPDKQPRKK

B1: M200: His-tagged human NM-MHC IIA residues Q1761-E1960, V1913I substitution (protein, UniProt P35579 1761-1960, looked up, variant V1913I)
chain: QINTDLNLERSHAQKNENARQQLERQNKELKVKLQEMEGTVKSKYKASITALEAKIAQLEEQLDNETKERQAACKQVRRTEKKLKDVLLQVDDERRNAEQYKDQADKASTRLKQLKRQLEEAEEEAQRANASRRKLQRELEDATETADAMNREISSLKNKLRRGDLPFVVPRRMARKGAGDGSDEEVDGKADGAEAKPAE
modifications: His tag
notes: His-tagged human NM-MHC IIA residues Q1761-E1960, V1913I substitution
S100A4 [1]; Ca^2+ association to peptide–S100A4
  k3: > 2000 μM^− 1 s^− 1
S100A4 [1]; Ca^2+ binding to peptide–S100A4, limit from K3 = K1K2/K0, read-out: K3
  Kd: < 150 pM
S100A4 [1]; Ca^2+ dissociation from peptide–S100A4–Ca^2+
  k− 3: 0.3 s^− 1
S100A4 [1]; peptide dissociation from S100A4–Ca^2+
  k− 2: < 0.3 s^− 1
M200 filamentous bundles; 0.1 M Na-acetate
  filamentous bundle width: ~100 nm
  individual strand width: about 10 nm
M200 filamentous bundles; metal shadowed, 0.5 M ammonium acetate, mean ± SD, n = 132
  mean length of coiled coil: 26.4 ± 2.03 nm
S100A4 [2]; [3]
  fast-phase amplitude: 26%
  slow-phase amplitude: 74%
S100A4 [2]; 2.5 μM M200 premixed with 5 μM S100A4, 100 mM NaCl
  slow-phase rate constant: 0.30 s^− 1
S100A4 [2]; 2.5 μM M200 premixed with 5 μM S100A4, 100 mM NaCl, 10 mM Hepes, 100 μM Ca^2+, pH 7.5, 20 °C
  fast-phase rate constant: 13 s^− 1
S100A4 [2]; in presence of coiled-coil fragments
  slower release of Ca^2+: 0.3–0.5 s^− 1
S100A4 [2]; peptide–S100A4–Ca^2+ complex
  Ca^2+ dissociation rate constant from complex (k− 3), comparison: 0.3 s^− 1
